Measured values from article PMC12234153.

Molecular target: STAT3 (UniProt P42227)
Experiment: anti-FLAG co-IP, anti-HA blot
Conditions: reference: wild type SMAD2-FLAG; sites S255

Substance: SMAD2 (from UniProt Q15796) S255A
- binding against the reference: weaker
